Experimental data published in PMC5655238.

Target: Bcl-2 (UniProt P10415)
Test: anti-HA IP, Bcl-2 blot
Details: reference: HA-Beclin-1 wild type; sites T119

Beclin-1 (from UniProt Q14457) HA-Beclin-1 T119A
binding against the reference: stronger
